Data set [1] deals with T1, DNTTIP1 (TdIF1), His-tagged (human, UniProt Q9H147 1-329).
T1 sequence: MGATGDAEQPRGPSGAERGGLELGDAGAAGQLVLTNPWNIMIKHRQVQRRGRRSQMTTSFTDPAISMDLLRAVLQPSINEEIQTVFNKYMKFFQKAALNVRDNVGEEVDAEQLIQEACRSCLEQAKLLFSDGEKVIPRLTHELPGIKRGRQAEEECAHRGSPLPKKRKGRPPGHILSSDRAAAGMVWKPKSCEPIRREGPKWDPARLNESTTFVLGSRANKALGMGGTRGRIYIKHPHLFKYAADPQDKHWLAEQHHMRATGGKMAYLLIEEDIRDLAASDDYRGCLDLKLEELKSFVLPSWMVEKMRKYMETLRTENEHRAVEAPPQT
Kind of data set: fluorescence anisotropy; Hill n 1.89; error = fit SE x15; Anisotropy: 15 nM DNA, 10 mM Na-PO4 pH 6.5, 150 mM KCl, 250 uM TCEP, 5% glycerol. Pull-down: 20 mM HEPES pH 7.9, 100 mM KCl, 10% glycerol, 0.05% CHAPS, poly(dIdC), oligo B, acetylated BSA, room temperature. The settings on record: protein: recombinant; tags: N-term 6xHis; chain copies: 2; label: fluorescein on first T of sense strand (anisotropy only); blunt. For orientation: Polarisation of emitted light reports the rotation of a fluorescent probe.

The target in data set [2] is T1, DNTTIP1 (TdIF1), His-tagged. Put plainly: equimolar DNA; Tm 32.7 to 43.5 C; unit inferred, M assumed; Anisotropy: 15 nM DNA, 10 mM Na-PO4 pH 6.5, 150 mM KCl, 250 uM TCEP, 5% glycerol. Pull-down: 20 mM HEPES pH 7.9, 100 mM KCl, 10% glycerol, 0.05% CHAPS, poly(dIdC), oligo B, acetylated BSA, room temperature. The settings on record: protein: recombinant; tags: N-term 6xHis; chain copies: 2; label: fluorescein on first T of sense strand (anisotropy only); blunt.

The target is the same in data set [3]. Kind of data set: fluorescence anisotropy; Hill n 1.78; error = fit SE x15; Anisotropy: 15 nM DNA, 10 mM Na-PO4 pH 6.5, 150 mM KCl, 250 uM TCEP, 5% glycerol. Pull-down: 20 mM HEPES pH 7.9, 100 mM KCl, 10% glycerol, 0.05% CHAPS, poly(dIdC), oligo B, acetylated BSA, room temperature. To be noted: protein: recombinant; tags: N-term 6xHis; chain copies: 2; label: fluorescein on first T of sense strand; blunt.

The target is the same in data set [4]. Put plainly: fluorescence anisotropy; Hill n 1.63; error = fit SE x15; Anisotropy: 15 nM DNA, 10 mM Na-PO4 pH 6.5, 150 mM KCl, 250 uM TCEP, 5% glycerol. Pull-down: 20 mM HEPES pH 7.9, 100 mM KCl, 10% glycerol, 0.05% CHAPS, poly(dIdC), oligo B, acetylated BSA, room temperature. To be noted: protein: recombinant; tags: N-term 6xHis; chain copies: 2; label: fluorescein on first T of sense strand (anisotropy only); blunt.

Data set [5] has the same target. Put plainly: equimolar DNA; Tm 39.2 C; unit inferred, M assumed; Anisotropy: 15 nM DNA, 10 mM Na-PO4 pH 6.5, 150 mM KCl, 250 uM TCEP, 5% glycerol. Pull-down: 20 mM HEPES pH 7.9, 100 mM KCl, 10% glycerol, 0.05% CHAPS, poly(dIdC), oligo B, acetylated BSA, room temperature. To be noted: protein: recombinant; tags: N-term 6xHis; chain copies: 2; label: fluorescein on first T of sense strand (anisotropy only); blunt.

For data set [6] the target is unchanged. Kind of data set: CD thermal denaturation; equimolar DNA; unit inferred, M assumed; Anisotropy: 15 nM DNA, 10 mM Na-PO4 pH 6.5, 150 mM KCl, 250 uM TCEP, 5% glycerol. Pull-down: 20 mM HEPES pH 7.9, 100 mM KCl, 10% glycerol, 0.05% CHAPS, poly(dIdC), oligo B, acetylated BSA, room temperature. The settings on record: protein: recombinant; tags: N-term 6xHis; chain copies: 2; blunt.

Data set [7] has the same target. Put plainly: fluorescence anisotropy; Hill n 2.39; error = fit SE x15; Anisotropy: 15 nM DNA, 10 mM Na-PO4 pH 6.5, 150 mM KCl, 250 uM TCEP, 5% glycerol. Pull-down: 20 mM HEPES pH 7.9, 100 mM KCl, 10% glycerol, 0.05% CHAPS, poly(dIdC), oligo B, acetylated BSA, room temperature. The settings on record: protein: recombinant; tags: N-term 6xHis; chain copies: 2; label: fluorescein on first T of sense strand; blunt.

What is called Kd is the constant that tells how readily two partners part at equilibrium.

B1: TASHET_25 wt (dsDNA)
DNA 1: AGATGCTGCATATAAGCAGCTGCTT
DNA 2: AAGCAGCTGCTTATATGCAGCATCT
Regarding B1, the Kd in data set [1] is 51.1 ± 4.2 nM; in data set [2] it was approximately 0.392 nM.

B2: Scr_25 (dsDNA)
DNA 1: AGATCAGCAGAGCTCTGGTAGCTAT
DNA 2: ATAGCTACCAGAGCTCTGCTGATCT
Take B2: the Kd in data set [3] is 156 ± 15.6 nM.

B3: ATCC_25 (dsDNA)
DNA 1: AGATGATCCATATAAGGATATCCTT
DNA 2: AAGGATATCCTTATATGGATCATCT
Regarding B3, the Kd in data set [4] was 137 ± 16.6 nM; in data set [5], approximately 791 nM.

B4: DNTTIP_cons (dsDNA)
DNA 1: CGCCAAATAAAAGTTGCATGGTCG
DNA 2: CGACCATGCAACTTTTATTTGGCG
For the molecule B4, the Kd in data set [6] was approximately 7.38 nM.

B5: CATAKO_25 (dsDNA)
DNA 1: AGATGCTGAGAGCTCGCAGCTGCTT
DNA 2: AAGCAGCTGCGAGCTCTCAGCATCT
For the molecule B5, in data set [7], the Kd amounted to 117 ± 15.6 nM.

The values are drawn from PMC11115230, “Mitotic deacetylase complex (MiDAC) recognizes the HIV-1 core promoter to control activated viral gene expression”.
